What is called Kd is the free concentration of one partner at which half of the binding sites on the other are occupied at equilibrium, for simple one-to-one binding.

For data set [1], the target named is SRSF1 RRM1 YS (human, UniProt Q07955 1-97, Y37S;Y72S). Kind of data set: ITC; NMR buffer: 50 mM L-Glu, 50 mM L-Arg, 0.05% beta-mercaptoethanol, 20 mM Na2HPO4 pH 7 (RRM1+2: plus 150 mM KCl, 1.5 mM MgCl2, 0.2 mM EDTA); NMR and ITC at 40 C. As to conditions: protein: recombinant; tags: N-terminal GB1-6xHis. Background: Isothermal titration calorimetry measures the heat released or taken up as one component is titrated into another.
SRSF1 RRM1 YS, sequence (Q07955 1-97 Y37S/Y72S): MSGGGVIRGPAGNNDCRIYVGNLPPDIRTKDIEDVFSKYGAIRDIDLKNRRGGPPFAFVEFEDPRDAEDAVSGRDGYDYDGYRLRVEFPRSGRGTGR

The target of data set [2] is T1, SRSF1 RRM1+2 YS (RRM12 YS) (human, UniProt Q07955 1-196, Y37S;Y72S). The description is as above. As to conditions: protein: recombinant; tags: GB1, His.
T1 sequence (Q07955 1-196 Y37S/Y72S): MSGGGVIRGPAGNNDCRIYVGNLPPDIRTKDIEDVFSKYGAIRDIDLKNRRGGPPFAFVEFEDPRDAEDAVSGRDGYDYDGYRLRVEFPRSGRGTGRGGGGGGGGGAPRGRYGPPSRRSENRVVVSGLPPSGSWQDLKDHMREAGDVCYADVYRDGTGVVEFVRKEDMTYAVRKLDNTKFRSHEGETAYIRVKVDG
Data set [3] addresses T1, SRSF1 RRM1+2 YS (RRM12 YS). Kind of data set: ITC; 143 in the reviewer reply; NMR buffer: 50 mM L-Glu, 50 mM L-Arg, 0.05% beta-mercaptoethanol, 20 mM Na2HPO4 pH 7 (RRM1+2: plus 150 mM KCl, 1.5 mM MgCl2, 0.2 mM EDTA); NMR and ITC at 40 C. As to conditions: protein: recombinant; tags: GB1, His.
The target in data set [4] is T2, SRSF1 RRM1 (YS or WT not stated) (human, UniProt Q07955 1-97). Put plainly: NMR; NMR buffer: 50 mM L-Glu, 50 mM L-Arg, 0.05% beta-mercaptoethanol, 20 mM Na2HPO4 pH 7 (RRM1+2: plus 150 mM KCl, 1.5 mM MgCl2, 0.2 mM EDTA); NMR and ITC at 40 C. As to conditions: protein: recombinant; tags: N-terminal GB1-6xHis.
T2 sequence (Q07955 1-97): as the sequence (Q07955 1-97 Y37S/Y72S) above, with S37Y, S72Y counted along it
In data set [5] the target is T1, SRSF1 RRM1+2 YS (RRM12 YS). Kind of data set: NMR; saturation at 1:1; NMR buffer: 50 mM L-Glu, 50 mM L-Arg, 0.05% beta-mercaptoethanol, 20 mM Na2HPO4 pH 7 (RRM1+2: plus 150 mM KCl, 1.5 mM MgCl2, 0.2 mM EDTA); NMR and ITC at 40 C. As to conditions: protein: recombinant; tags: GB1, His.
For data set [6], the target named is SRSF1 RRM1 WT (human, UniProt Q07955 1-97). The data set is described as above. As to conditions: protein: recombinant; tags: N-terminal GB1-6xHis.
SRSF1 RRM1 WT, sequence (Q07955 1-97): as the sequence (Q07955 1-97 Y37S/Y72S) above, with S37Y, S72Y counted along it
Data set [7] has as its target T2, SRSF1 RRM1 (YS or WT not stated). Put plainly: NMR solution structure; 1:1 complex; NMR buffer: 50 mM L-Glu, 50 mM L-Arg, 0.05% beta-mercaptoethanol, 20 mM Na2HPO4 pH 7 (RRM1+2: plus 150 mM KCl, 1.5 mM MgCl2, 0.2 mM EDTA); NMR and ITC at 40 C. As to conditions: protein: recombinant; tags: N-terminal GB1-6xHis.

CCCCCC (ssRNA) [CCCCCC RNA (polyC)]: the Kd in data set [1] came out at 11 µM.
As to UGGAUUUUUCAU (ssRNA), the Kd in data set [2] worked out at 0.055 µM.
Turning to UGGAUUUUUUUU (ssRNA), in data set [3], the Kd is 0.145 µM.
Regarding UUUUUU (ssRNA) [polyU (NMR, length not stated)], the binding result in data set [4] is given as “no binding”.
As for CCCCCC (ssRNA) [polyC (NMR, length not stated)], in data set [4], the binding result is “binds”.
Still for that read-out and setting: the result for AAAAAA (ssRNA) [polyA (NMR, length not stated)] reads “no binding”.
As to UUUUUGGAU (ssRNA), in data set [2], the Kd came out at 0.164 µM.
Consider UUCAGA (ssRNA) [SMN1 exon7 ESE1], for which, in data set [4], the binding result is reported as “binds”.
As to UCAUUGGAUUUUUCAU (ssRNA), the binding result in data set [5] was “binds”.
Take GGGGGG (ssRNA) [polyG (NMR, length not stated)]: the binding result in data set [4] is listed as “no binding”.
Take UUUAGA (ssRNA) [SMN2 exon7 ESE1 counterpart]: the binding result in data set [4] is on record as “no binding”.
In the case of UUUUUU (ssRNA) [UUUUUU RNA (polyU)], in data set [1], the binding result is recorded as “no binding”.
In the case of AACGAA (ssRNA) [AACGAA RNA], the binding result in data set [4] is on record as “binds”. Moreover, in data set [1], the Kd turned out to be 25 µM.
For AACAAA (ssRNA) [AACAAA RNA], the binding result in data set [6] and in data set [7] was “binds” each time. Besides, in data set [1], the Kd was 21 µM.

The record behind these values is article PMC7813835, “Structure of SRSF1 RRM1 bound to RNA reveals an unexpected bimodal mode of interaction and explains its involvement in SMN1 exon7 splicing”.
